From patent publication US20090214528A1 (published 2009)

Biological target: human tissue factor (human, UniProt P13726 33-295)
Experiment: cell-based or functional assay

B1: CNTO 860 derived from the YB2/0 host cell line C1083B (antibody, human IgG1, kappa, V domains shown)
VH: QVQLVESGGGVVQPGRSLRLSCKASGFNIKDYYMHWVRQAPGKGLEWIGLIDPENGNTIYDPKFQGRFTISADNSKNTLFLQMDSLRPEDTAVYYCARDNSYYFDYWGQGTPVTVSS
VL: DIQMTQSPSSLSASVGDRVTITCKASQDIRKYLNWYQQKPGKAPKLLIYYATSLADGVPSRFSGSGSGTDYTFTISSLQPEDIATYYCLQHGESPYTFGQGTKLEITR
  ADCC potency relative to CNTO 860 derived from C463, second experiment, 51Cr-release on HCT 116 cells: ~10 fold
